Consider four molecules from patent US20240190966A1.

Positions count from the first letter of the chain named. Several values for one entry are separate records, joined by “and”; a condition that tells them apart may be missing. Equal values may be shown once. Read-outs that look alike come from different tables or passages of the source.

For test [1], the target named is T1, 27mer cyno CD3 polypeptide conjugated to biotin (cynomolgus monkey).
T1 sequence (peptide, biotin conjugated (site not stated)): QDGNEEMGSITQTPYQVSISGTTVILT
Nature of the test: BIAcore T200 SPR; biotinylated 27mer CD3 peptide on SA chip; TDB flowed at 37 C.

Test [2] shares this target. The test is described as above. This is another data set of the same source.
Test [3] deals with cynomolgus monkey LY6G6D-Fc (cynomolgus monkey). Nature of the test: BIAcore SPR; LY6G6D-Fc immobilized; TDB flowed at 37 C.
The target is the same in test [4]. Nature of the test: BIAcore SPR; two-cell TDB with 38E4.v1 arm.
The target is the same in test [5]. The test can be described thus: BIAcore SPR; LY6G6D-Fc immobilized; TDB flowed at 37 C. This is another data set of the same source.

B1: LY6G6D TDB assembled using a one-cell system, anti-LY6G6D 20A12.QNTv12 arm (one-cell) and anti-CD3 38E4v1 (WT) arm (bispecific antibody, V domains shown)
VH 1: EVQLLESGGGLVQPGGSLRLSCAASGFDFVNNAMIWVREAPGKGLEWVSALSFADNTAYYATWASGRFTISRDSSKTTVYLQMNSLRAEDTAVYYCMRGDLWGPGTLVTVSS
VL 1: DIQMTQSPSTLSASVGDRVTITCQASESITRYLNWYQKKPGKAPKLLIYDASKLPSGVPSRFSGSGSGTEFTLTISSLQPDDFATYYCQSTSFRGRSYQNTFGGGTKVEIK
VH 2: EVQLVQSGAEVKKPGASVKVSCKASGFTFTSYYIHWVRKAPGQGLEWIGWIYPENDNTKYNEKFKDRVTITADTSTSTAYLELSSLRSEDTAVYYCARDGYSRYYFDYWGQGTLVTVSS
VL 2: DIVMTQSPDSLAVSLGERATINCKSSQSLLNSRTRKNYLAWYQEKPGQSPKLLIYWTSTRKSGVPDRFSGSGSGTDFTLTISSLQAEDVAVYYCKQSFILRTFGQGTKVEIK
For the molecule B1, the Kd in test [1] is 15.9 nM. In test [2], the dissociation constant Kd is 15.4 nM and 16.5 nM; the dissociation rate constant (koff) is 0.0399 s⁻¹ and 0.0437 s⁻¹; the kon was 2.6e+06 M⁻¹ s⁻¹ and 2.65e+06 M⁻¹ s⁻¹.

B2: LY6G6D TDB comprising the anti-LY6G6D 20A12.QNTv12 arm (two-cell) and the anti-CD3 38E4.v1 arm (bispecific antibody, V domains shown)
VH 1: B1 VH 1 with E39Q
VL 1: B1 VL 1 with K38Q
VH 2: B1 VH 2 with K39Q
VL 2: B1 VL 2 with E44Q
B2: the Kd in test [1] is 14.8 nM; in test [3] it was 1.92 nM; in test [4], 2.29 nM; in test [2] it was 13 nM and 16.5 nM; in test [5] it was 2.29 nM. In addition, the koff is 0.000444 s⁻¹ in test [3]; 0.0337 s⁻¹ and 0.0364 s⁻¹ in test [2]; 0.00038 s⁻¹ in test [5]. The kon in test [3] is 231000 M⁻¹ s⁻¹; in test [2], 2.6e+06 M⁻¹ s⁻¹ and 2.21e+06 M⁻¹ s⁻¹; in test [5], 166000 M⁻¹ s⁻¹.

B3: LY6G6D TDB assembled using a one-cell system, anti-LY6G6D 20A12.QNTv12 arm (one-cell) and anti-CD3 38E4.v1 MD4 arm (bispecific antibody, V domains shown)
VH 1: B1 VH 1
VL 1: B1 VL 1
VH 2: B1 VH 2
VL 2: B1 VL 2 with S49P, T57A
B3 gave a dissociation constant (Kd) in test [1] of 14.4 nM. For the same molecule, in test [3], the dissociation constant Kd was determined as 2.62 nM, the koff came out at 0.000574 s⁻¹ and the kon was 219000 M⁻¹ s⁻¹. In addition, in test [2], the Kd is 14 nM and 14.7 nM; the koff was 0.0433 s⁻¹ and 0.0426 s⁻¹; the kon is 3.09e+06 M⁻¹ s⁻¹ and 2.89e+06 M⁻¹ s⁻¹.

B4: LY6G6D TDB assembled using a one-cell system, anti-LY6G6D 20A12.QNTv12 arm (one-cell) and anti-CD3 38E4.v1 MD1 arm (bispecific antibody, V domains shown)
VH 1: B1 VH 1
VL 1: B1 VL 1
VH 2: B1 VH 2
VL 2: B1 VL 2 with S49P, T57A, K61E, K95T
Regarding B4, the equilibrium dissociation constant (Kd) in test [1] is 26.1 nM; in test [3], 3.63 nM; in test [2], 26.6 nM and 25.6 nM. Further, the koff in test [3] is 0.000512 s⁻¹; in test [2], 0.0383 s⁻¹ and 0.0376 s⁻¹. The kon in test [3] is 141000 M⁻¹ s⁻¹; in test [2] it was 1.44e+06 M⁻¹ s⁻¹ and 1.47e+06 M⁻¹ s⁻¹.
